Results reported in publication doi:10.1101/2021.03.14.433363.
Read-outs that look alike come from different tables or passages of the source.

How the values were obtained:
DRH-3 CTD [1] = molecular target: T1, DRH-3 CTD (Caenorhabditis elegans, UniProt Q93413 940-1108); test: crystal structure
T1 sequence: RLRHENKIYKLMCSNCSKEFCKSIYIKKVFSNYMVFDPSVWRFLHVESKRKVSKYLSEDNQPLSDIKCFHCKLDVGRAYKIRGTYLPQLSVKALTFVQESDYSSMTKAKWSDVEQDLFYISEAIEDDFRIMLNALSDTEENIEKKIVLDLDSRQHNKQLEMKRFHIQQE

RIG-I CTD [2] = molecular target: T2, RIG-I CTD (human, UniProt O95786 802-925); test: limited trypsin proteolysis protection
T2 sequence: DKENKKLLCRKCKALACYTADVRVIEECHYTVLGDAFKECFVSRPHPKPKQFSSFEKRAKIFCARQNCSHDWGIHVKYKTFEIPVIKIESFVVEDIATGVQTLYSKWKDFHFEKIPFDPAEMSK

RIG-I CTD [3] = molecular target: T2, RIG-I CTD; test: limited trypsin proteolysis protection; remark: listed apart in the source
DRH-3 full length = molecular target: T3, DRH-3 full length (Caenorhabditis elegans, UniProt Q93413 1-1119); test: HDX-MS
T3 sequence: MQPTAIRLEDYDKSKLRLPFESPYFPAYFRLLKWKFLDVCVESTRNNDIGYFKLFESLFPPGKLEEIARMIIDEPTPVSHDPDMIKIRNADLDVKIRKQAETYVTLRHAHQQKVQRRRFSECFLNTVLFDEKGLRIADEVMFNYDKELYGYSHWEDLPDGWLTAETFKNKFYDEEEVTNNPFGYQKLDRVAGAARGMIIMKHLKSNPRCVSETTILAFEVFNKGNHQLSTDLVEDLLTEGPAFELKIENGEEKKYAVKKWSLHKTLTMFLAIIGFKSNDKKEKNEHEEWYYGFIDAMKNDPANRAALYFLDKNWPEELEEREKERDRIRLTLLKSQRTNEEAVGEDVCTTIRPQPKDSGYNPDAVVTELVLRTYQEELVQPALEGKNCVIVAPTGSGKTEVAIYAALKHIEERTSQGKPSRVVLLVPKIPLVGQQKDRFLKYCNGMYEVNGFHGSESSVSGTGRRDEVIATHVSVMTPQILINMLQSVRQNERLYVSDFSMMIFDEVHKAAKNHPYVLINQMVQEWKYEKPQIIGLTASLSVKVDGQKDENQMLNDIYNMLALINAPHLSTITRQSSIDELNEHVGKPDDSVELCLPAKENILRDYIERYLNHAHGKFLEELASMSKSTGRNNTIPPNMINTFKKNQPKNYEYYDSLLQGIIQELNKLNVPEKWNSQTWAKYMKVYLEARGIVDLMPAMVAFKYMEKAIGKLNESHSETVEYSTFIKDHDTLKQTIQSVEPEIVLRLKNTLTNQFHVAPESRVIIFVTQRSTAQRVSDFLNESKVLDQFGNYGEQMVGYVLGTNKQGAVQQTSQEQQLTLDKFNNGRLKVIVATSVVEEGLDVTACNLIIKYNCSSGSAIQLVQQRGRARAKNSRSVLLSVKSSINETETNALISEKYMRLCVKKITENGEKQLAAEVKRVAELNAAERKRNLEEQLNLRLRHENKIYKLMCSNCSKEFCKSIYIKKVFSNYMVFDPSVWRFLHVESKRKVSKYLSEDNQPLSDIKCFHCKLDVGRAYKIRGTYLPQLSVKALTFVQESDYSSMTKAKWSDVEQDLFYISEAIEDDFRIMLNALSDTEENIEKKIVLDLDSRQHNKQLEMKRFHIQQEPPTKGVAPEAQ

DRH-3 CTD [4] = molecular target: T1, DRH-3 CTD; test: fluorescence polarization

B1: 5'-ppp 8-mer ssRNA (ssRNA)
RNA: GGCCGCCC
modifications: 5'-triphosphate
Does B1 bind (DRH-3 CTD [1])?
Result: binds

B2: 5'-ppp 12-mer dsRNA (dsRNA)
RNA 1: GGCGCGCGCGCC
RNA 2: GGCGCGCGCGCC
modifications: 5'-triphosphate
Does B2 bind (RIG-I CTD [2])?
Result: binds

Does B2 bind (DRH-3 CTD [1])?
Result: binds

B3: 5'-ppp 12-mer dsRNA with 3'-overhang (dsRNA)
RNA 1: GGCGCGCGCGCCC
RNA 2: GGCGCGCGCGCCC
modifications: 5'-triphosphate
Does B3 bind (RIG-I CTD [3])?
Result: binds

B4: 3p10L (SLR10) (structured_RNA)
RNA: GGACGUACGUUUCGACGUACGUCC
modifications: 5'-triphosphate
Does B4 bind (DRH-3 full length)?
Result: binds

B5: FAM-labelled 5'-OH 18-mer hairpin RNA (structured_RNA)
RNA: UUUAUAUAUUAGGACCGCUCGGCGGUCCUAAUAUAUAAA
modifications: 5'-OH
Which Kd (DRH-3 CTD [4]) does the source give for B5 here?
The Kd was 325 ± 70.1 nM.
